Data from patent EP3177737B1 (Arizona Board of Regents on behalf of the University of …, dated 2020).

B1: Peptide 6: Ac-Nle-c[Asp-(NMe)His-nal-Arg-Trp-Lys]-NH2 (peptide)
peptide: LDHXRWK
modifications: N-terminal acetyl; Nle at 4; D-Nal(2') (nal) at 7; Asp5-Lys10 side-chain lactam ring; C-terminal amide; backbone N-methyl on His6 (alpha-MSH numbering 4-10)
B2: Peptide 2: Ac-Nle-c[Asp-His-nal-Arg-Trp-(NMe)Lys]-NH2 (peptide)
peptide: LDHXRWK
modifications: N-terminal acetyl; Nle at 4; D-Nal(2') (nal) at 7; Asp5-Lys10 side-chain lactam ring; C-terminal amide; backbone N-methyl on Lys10 (alpha-MSH numbering 4-10)
B3: Peptide 28: Ac-Nle-c[Asp-(NMe)His-nal-(NMe)Arg-(NMe)Trp-(NMe)Lys]-NH2 (peptide)
peptide: LDHXRWK
modifications: N-terminal acetyl; Nle at 4; D-Nal(2') (nal) at 7; Asp5-Lys10 side-chain lactam ring; C-terminal amide; backbone N-methyl on His6, Arg8, Trp9 and Lys10 (alpha-MSH numbering 4-10)
B4: Peptide 14: Ac-Nle-c[Asp-His-(NMe)nal-(NMe)Arg-Trp-Lys]-NH2 (peptide)
peptide: LDHXRWK
modifications: N-terminal acetyl; Nle at 4; D-Nal(2') (nal) at 7; Asp5-Lys10 side-chain lactam ring; C-terminal amide; backbone N-methyl on nal7 and Arg8 (alpha-MSH numbering 4-10)
B5: Peptide 7: Ac-Nle-c[Asp-His-nal-Arg-(NMe)Trp-(NMe)Lys]-NH2 (peptide)
peptide: LDHXRWK
modifications: N-terminal acetyl; Nle at 4; D-Nal(2') (nal) at 7; Asp5-Lys10 side-chain lactam ring; C-terminal amide; backbone N-methyl on Trp9 and Lys10 (alpha-MSH numbering 4-10)
B6: Peptide 10: Ac-Nle-c[Asp-(NMe)His-nal-Arg-Trp-(NMe)Lys]-NH2 (peptide)
peptide: LDHXRWK
modifications: N-terminal acetyl; Nle at 4; D-Nal(2') (nal) at 7; Asp5-Lys10 side-chain lactam ring; C-terminal amide; backbone N-methyl on His6 and Lys10 (alpha-MSH numbering 4-10)
B7: Peptide 11: Ac-Nle-c[Asp-His-nal-(NMe)Arg-(NMe)Trp-Lys]-NH2 (peptide)
peptide: LDHXRWK
modifications: N-terminal acetyl; Nle at 4; D-Nal(2') (nal) at 7; Asp5-Lys10 side-chain lactam ring; C-terminal amide; backbone N-methyl on Arg8 and Trp9 (alpha-MSH numbering 4-10)
B8: Peptide 8: Ac-Nle-c[Asp-His-nal-(NMe)Arg-Trp-(NMe)Lys]-NH2 (peptide)
peptide: LDHXRWK
modifications: N-terminal acetyl; Nle at 4; D-Nal(2') (nal) at 7; Asp5-Lys10 side-chain lactam ring; C-terminal amide; backbone N-methyl on Arg8 and Lys10 (alpha-MSH numbering 4-10)
B9: Peptide 19: Ac-Nle-c[Asp-(NMe)His-nal-Arg-(NMe)Trp-(NMe)Lys]-NH2 (peptide)
peptide: LDHXRWK
modifications: N-terminal acetyl; Nle at 4; D-Nal(2') (nal) at 7; Asp5-Lys10 side-chain lactam ring; C-terminal amide; backbone N-methyl on His6, Trp9 and Lys10 (alpha-MSH numbering 4-10)
B10: Peptide 15: Ac-Nle-c[Asp-(NMe)His-nal-(NMe)Arg-Trp-Lys]-NH2 (peptide)
peptide: LDHXRWK
modifications: N-terminal acetyl; Nle at 4; D-Nal(2') (nal) at 7; Asp5-Lys10 side-chain lactam ring; C-terminal amide; backbone N-methyl on His6 and Arg8 (alpha-MSH numbering 4-10)
B11: Peptide 4: Ac-Nle-c[Asp-His-nal-(NMe)Arg-Trp-Lys]-NH2 (peptide)
peptide: LDHXRWK
modifications: N-terminal acetyl; Nle at 4; D-Nal(2') (nal) at 7; Asp5-Lys10 side-chain lactam ring; C-terminal amide; backbone N-methyl on Arg8 (alpha-MSH numbering 4-10)
B12: Peptide 3: Ac-Nle-c[Asp-His-nal-Arg-(NMe)Trp-Lys]-NH2 (peptide)
peptide: LDHXRWK
modifications: N-terminal acetyl; Nle at 4; D-Nal(2') (nal) at 7; Asp5-Lys10 side-chain lactam ring; C-terminal amide; backbone N-methyl on Trp9 (alpha-MSH numbering 4-10)
B13: Peptide 16: Ac-Nle-c[Asp-(NMe)His-(NMe)nal-Arg-Trp-Lys]-NH2 (peptide)
peptide: LDHXRWK
modifications: N-terminal acetyl; Nle at 4; D-Nal(2') (nal) at 7; Asp5-Lys10 side-chain lactam ring; C-terminal amide; backbone N-methyl on His6 and nal7 (alpha-MSH numbering 4-10)
B14: Peptide 32 (penta-N-methylated compound 32): Ac-Nle-c[Asp-(NMe)His-(NMe)nal-(NMe)Arg-(NMe)Trp-(NMe)Lys]-NH2 (peptide)
peptide: LDHXRWK
modifications: N-terminal acetyl; Nle at 4; D-Nal(2') (nal) at 7; Asp5-Lys10 side-chain lactam ring; C-terminal amide; backbone N-methyl on His6, nal7, Arg8, Trp9 and Lys10 (alpha-MSH numbering 4-10)
notes: NO; 32; No. 32 to the hMC1R antagonist

Each binder was assayed against T1, human melanocortin 5 receptor (human, UniProt P33032 1-325) (assay: competition with [125I]-NDP-alpha-MSH on whole HEK293 cells expressing the receptor).
T1 construct: whole, on cells; also called hMC5R; hMC5 receptor
T1 sequence (P33032 whole entry): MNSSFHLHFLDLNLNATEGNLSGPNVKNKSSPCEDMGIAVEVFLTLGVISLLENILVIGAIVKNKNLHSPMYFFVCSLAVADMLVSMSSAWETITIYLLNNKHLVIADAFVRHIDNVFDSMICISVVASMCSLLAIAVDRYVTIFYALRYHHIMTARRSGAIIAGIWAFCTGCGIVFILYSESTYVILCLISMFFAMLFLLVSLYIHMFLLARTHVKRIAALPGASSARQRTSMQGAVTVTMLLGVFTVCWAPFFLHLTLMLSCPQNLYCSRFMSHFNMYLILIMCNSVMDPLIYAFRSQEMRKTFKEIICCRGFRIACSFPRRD

Row | binding result | Binder
1 | binds | B1
2 | binds | B2
3 | binds | B3
4 | binds | B4
5 | binds | B5
6 | binds | B6
7 | binds | B7
8 | binds | B8
9 | binds | B9
10 | binds | B10
11 | binds | B11
12 | binds | B12
13 | binds | B13

What follows are binders tested against T2, human melanocortin 1 receptor (human, UniProt Q01726 1-317) in the same assay as above.
T2 construct: whole, on cells; also called hMC1R; hMC1 receptor
T2 sequence (Q01726 whole entry): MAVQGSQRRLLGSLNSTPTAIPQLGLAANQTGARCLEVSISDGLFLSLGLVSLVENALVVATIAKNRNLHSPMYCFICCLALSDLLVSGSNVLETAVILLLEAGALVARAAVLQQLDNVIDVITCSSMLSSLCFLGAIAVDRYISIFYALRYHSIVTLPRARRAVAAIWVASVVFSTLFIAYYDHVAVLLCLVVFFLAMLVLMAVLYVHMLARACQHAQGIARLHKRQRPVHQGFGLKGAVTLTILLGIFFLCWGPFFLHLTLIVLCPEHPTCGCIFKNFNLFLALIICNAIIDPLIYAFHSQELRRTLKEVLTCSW

Row | IC50 [nM] | Binder
14 | 68 | B14

What follows are binders tested against T3, human melanocortin 3 receptor (human, UniProt P41968 1-323) (assay: assay not given; taken as the competition binding assay on HEK293 cells).
T3 construct: whole, on cells; also called hMC3R; hMC3 receptor
T3 sequence (P41968 whole entry): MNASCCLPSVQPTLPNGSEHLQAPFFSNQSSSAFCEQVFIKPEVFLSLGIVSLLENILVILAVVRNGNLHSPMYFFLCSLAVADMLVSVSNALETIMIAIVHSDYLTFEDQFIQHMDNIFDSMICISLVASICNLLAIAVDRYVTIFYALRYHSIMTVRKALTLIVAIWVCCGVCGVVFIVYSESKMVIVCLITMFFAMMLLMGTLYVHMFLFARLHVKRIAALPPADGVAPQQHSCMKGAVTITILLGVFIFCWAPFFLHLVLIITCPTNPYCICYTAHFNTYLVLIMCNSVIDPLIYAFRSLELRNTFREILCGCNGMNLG

Row | binding affinity [nM] | Binder
15 | 15 | B10

The binders below were run against T2, human melanocortin 1 receptor (assay: competition with [125I]-NDP-alpha-MSH on A375 human melanoma cells).

Row | IC50 [nM] | Binder
16 | 14.8 | B10
